Measured values reported in patent publication US20190233517A1 (published 2019).
Positions count from the first letter of the chain named. Read-outs that look alike come from different tables or passages of the source.

Assays:
[1] = biological target: CD3 on the cell surface of Jurkat cells (human, UniProt P07766 23-207; P04234 22-171; P09693 23-182); experiment: FACS binding; Jurkat cells
[2] = biological target: T1, CD20 on the cell surface of Raji cells (human, UniProt P11836 1-297); experiment: FACS binding; Raji cells
T1 chain: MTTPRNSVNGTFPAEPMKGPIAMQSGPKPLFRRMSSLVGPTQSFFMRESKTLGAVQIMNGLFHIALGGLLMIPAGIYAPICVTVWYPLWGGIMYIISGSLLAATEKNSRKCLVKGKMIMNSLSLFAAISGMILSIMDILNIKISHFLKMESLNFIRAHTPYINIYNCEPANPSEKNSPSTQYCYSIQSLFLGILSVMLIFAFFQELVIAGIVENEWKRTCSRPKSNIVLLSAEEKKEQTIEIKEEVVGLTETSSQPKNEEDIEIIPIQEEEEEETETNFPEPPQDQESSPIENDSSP

[3] = biological target: T2, cynomolgus CD3 on primary cynomolgus T cells (UniProt Q95LI5 22-198); experiment: FACS binding; cyno T cells
T2 epsilon: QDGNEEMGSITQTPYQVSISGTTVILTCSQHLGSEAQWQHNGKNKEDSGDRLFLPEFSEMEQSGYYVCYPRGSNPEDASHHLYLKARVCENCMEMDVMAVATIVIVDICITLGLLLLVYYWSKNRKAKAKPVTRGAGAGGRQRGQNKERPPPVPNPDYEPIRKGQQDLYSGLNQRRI

[4] = biological target: T3, cynomolgus CD20 on transiently transfected HEK 293 cells (cynomolgus, UniProt M4ZHZ6 1-297); experiment: FACS binding; 293F-cynoCD20 cells
T3 chain: T1 chain with S25P, F31L, T51A, A157V, K217R, N226S, I227V, T239V

[5] = biological target: T1, CD20 on the cell surface of Raji cells; experiment: FACS binding; Raji cells
[6] = biological target: T3, cynomolgus CD20 on transiently …; experiment: FACS
[7] = biological target: T2, cynomolgus CD3 on primary cynomolgus T …; experiment: FACS

B1: CD3 mAb (described in US2009/0252683) (antibody, V domains shown)
VH: EVQLLESGGGLVQPGGSLKLSCAASGFTFNTYAMNWVRQAPGKGLEWVARIRSKYNNYATYYADSVKDRFTISRDDSKNTAYLQMNNLKTEDTAVYYCVRHGNFGNSYVSWFAYWGQGTLVTVSS
VL: ELVVTQEPSLTVSPGGTVTLTCRSSTGAVTTSNYANWVQQKPGQAPRGLIGGTNKRAPGTPARFSGSLLGGKAALTLSGVQPEDEAEYYCALWYSNLWVFGGGTKLTVL
[1]
  EC50: 0.848 nM
[2]
  EC50: ~8160 nM
[3]
  EC50: 1.15 nM

B2: FIT018a CD20 (Ofatumumab)/CD3 mAb (bispecific antibody)
chain 1: not shown
chain 2: EVQLVESGGGLVQPGRSLRLSCAASGFTFNDYAMHWVRQAPGKGLEWVSTISWNSGSIGYADSVKGRFTISRDNAKKSLYLQMNSLRAEDTALYYCAKDIQYGNYYYGMDVWGQGTTVTVSSASTKGPSVFPLAPSSKSTSGGTAALGCLVKDYFPEPVTVSWNSGALTSGVHTFPAVLQSSGLYSLSSVVTVPSSSLGTQTYICNVNHKPSNTKVDKKVEPKSC
chain 3: ELVVTQEPSLTVSPGGTVTLTCRSSTGAVTTSNYANWVQQKPGQAPRGLIGGTNKRAPGTPARFSGSLLGGKAALTLSGVQPEDEAEYYCALWYSNLWVFGGGTKLTVLGQPKAAPSVTLFPPSSEELQANKATLVCLISDFYPGAVTVAWKADSSPVKAGVETTTPSKQSNNKYAASSYLSLTPEQWKSHRSYSCQVTHEGSTVEKTVAPTECS
[2]
  EC50: 16.8 nM
[3]
  EC50: 3.85 nM
[4]
  EC50: 14.3 nM

B3: FIT021b (antibody)
chain 1: not shown
chain 2: MEFGLSWLFLVAILKGVQCEVQLVESGGGLVQPGRSLRLSCAASGFTFNDYAMHWVRQAPGKGLEWVSTISWNSGSIGYADSVKGRFTISRDNAKKSLYLQMNSLRAEDTALYYCAKDIQYGNYYYGMDVWGQGTTVTVSSASTKGPSVFPLAPSSKSTSGGTAALGCLVKDYFPEPVTVSWNSGALTSGVHTFPAVLQSSGLYSLSSVVTVPSSSLGTQTYICNVNHKPSNTKVDKKVEPKSC
chain 3: MDMRVPAQLLGLLLLWFPGSRCDIQLTQSPSSLSASVGDRVTMSCKSSQSVLYSANHKNYLAWYQQKPGKAPKLLIYWASTRESGVPSRFSGSGSGTDFTFTISSLQPEDIATYYCHQYLSSWTFGGGTKLEIKRTVAAPSVFIFPPSDEQLKSGTASVVCLLNNFYPREAKVQWKVDNALQSGNSQESVTEQDSKDSTYSLSSTLTLSKADYEKHKVYACEVTHQGLSSPVTKSFNRGEC
[5]
  EC50: 7.66 nM

B4: anti-CD20 (Ofatumumab) (antibody, V domains shown)
VH: EVQLVESGGGLVQPGRSLRLSCAASGFTFNDYAMHWVRQAPGKGLEWVSTISWNSGSIGYADSVKGRFTISRDNAKKSLYLQMNSLRAEDTALYYCAKDIQYGNYYYGMDVWGQGTTVTVSS
VL: EIVLTQSPATLSLSPGERATLSCRASQSVSSYLAWYQQKPGQAPRLLIYDASNRATGIPARFSGSGSGTDFTLTISSLEPEDFAVYYCQQRSNWPITFGQGTRLEIK
[6]
  EC50: 3.07 nM
[7]
  EC50: 490 nM
